In patent US20240199757A1 (UNIVERSITY OF CHICAGO, published 2024):
Like-named read-outs stand apart in the source and are kept apart here.

Columns and labels:
[1] = target: T1, human NT5E expressed on MDA-MB-231 cells (human, UniProt P21589 27-549); experiment: flow cytometry on MDA-MB-231 cells, 1 mM ATP
T1 construct: whole, on cells; also called NT5E-expressing MDA-MB-231 cells; CD73
T1 sequence (looked up): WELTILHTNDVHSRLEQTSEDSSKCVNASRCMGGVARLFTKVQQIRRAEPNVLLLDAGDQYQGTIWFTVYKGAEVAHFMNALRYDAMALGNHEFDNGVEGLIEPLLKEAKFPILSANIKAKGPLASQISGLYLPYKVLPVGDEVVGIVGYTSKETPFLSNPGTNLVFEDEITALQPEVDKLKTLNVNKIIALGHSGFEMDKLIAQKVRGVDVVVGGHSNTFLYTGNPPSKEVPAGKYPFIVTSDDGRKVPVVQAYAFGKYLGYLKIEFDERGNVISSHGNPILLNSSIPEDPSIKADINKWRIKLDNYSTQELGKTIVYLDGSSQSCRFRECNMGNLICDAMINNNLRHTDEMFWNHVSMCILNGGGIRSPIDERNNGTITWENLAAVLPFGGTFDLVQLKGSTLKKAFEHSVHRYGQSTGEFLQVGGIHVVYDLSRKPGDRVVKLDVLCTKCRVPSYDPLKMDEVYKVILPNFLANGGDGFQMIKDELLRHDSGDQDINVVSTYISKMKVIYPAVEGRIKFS
Method: (§1) Flow cytometry analysis of antibodies binding to human NT5E expressed on MDA-MB-231 cells in ATP-free condition (black) or in 1 mM ATP (red). Top panel: (left) 1780 Fab and (right) 1780 IgG titrations. […] Binding was measured at the indicated range of antibody concentrations and is expressed as mean±st. dev of median fluorescence intensity (MFI) of 1-2 replicates. Data were analyzed using OriginLab, and EC₅₀ values are shown next to the fitted curves.
(§2) Human MDA-MB-231 cells and murine 4T1 cells were grown to 90% confluency, detached with 5 mM EDTA for 15 min at 37° C. and then resuspended in 37° C. lx PBS (#10010031, Gibco) supplemented with 1% FBS and 1OpM ZnCl2. Separate working buffers (WB) of PBS and 1% FBS with or without fixed nucleotide concentrations were used throughout all washing steps to maintain constant condition. In 96-well plates (#3799, Costar), 0.2×10⁶ cells were added per well. The plates were spun at 500×g for 5 min and the supernatant was removed. Anti-NT5E antibodies were diluted to the desired concentration in 100 μL WB, added to the cells and the plates were incubated for 20 min at 37° C. Plates were spun and cells were washed twice with WB then spun a second time. Cells were stained with 100 μL of secondary antibody (Alexa Fluor 647 AffiniPure Goat Anti-Human IgG, F(ab′)2 fragment specific, #109-605-006, Jackson, 1:200) dilution and plates were incubated for 20 min at 37° C. Cells were washed twice with WB then fixed on ice with WB supplemented with 0.5% PFA. Fixing solution was removed by centrifugation and cells were resuspended in cold 1× PBS. Samples were analyzed by flow cytometry using CytoFLEX (Beckman Coulter) and mean fluorescence intensity (MFI) data was extracted using FlowJo software. Resulting binding data was plotted using OriginLab.

[2] = target: T1, human NT5E expressed on MDA-MB-231 cells; experiment: flow cytometry on MDA-MB-231 cells, 1 mM ATP; remark: listed apart in the source
Method: as §1, §2

[3] = target: T2, murine NT5E expressed on 4T1 cells (murine, UniProt Q61503 29-551); experiment: flow cytometry on 4T1 cells, single Fab concentration, -ATP
T2 construct: whole, on cells; also called mouse NT5E-expressing 4T1 cells
T2 sequence (looked up): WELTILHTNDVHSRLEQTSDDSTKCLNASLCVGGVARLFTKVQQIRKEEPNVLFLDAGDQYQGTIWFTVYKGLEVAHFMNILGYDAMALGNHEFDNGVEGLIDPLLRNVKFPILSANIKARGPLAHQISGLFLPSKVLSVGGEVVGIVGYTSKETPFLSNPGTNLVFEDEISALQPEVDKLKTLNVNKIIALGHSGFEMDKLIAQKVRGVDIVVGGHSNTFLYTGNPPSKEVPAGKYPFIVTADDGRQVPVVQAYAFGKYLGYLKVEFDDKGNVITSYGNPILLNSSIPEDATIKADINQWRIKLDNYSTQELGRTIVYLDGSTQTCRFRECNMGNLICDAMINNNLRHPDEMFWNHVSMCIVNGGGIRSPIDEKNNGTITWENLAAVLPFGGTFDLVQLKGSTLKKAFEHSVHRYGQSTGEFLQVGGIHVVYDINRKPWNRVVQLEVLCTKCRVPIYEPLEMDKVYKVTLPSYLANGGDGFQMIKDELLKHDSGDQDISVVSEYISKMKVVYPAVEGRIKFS
Method: as §2

EC50 [1]: 37 nM
EC50 [2]: 40.8 nM
binding result [3]: no binding (tested: 200 nM)
B1: 1780 Fab (Fab, V domains shown)
VH: EVQLVESGGGLVQPGGSLRLSCAASGFNFYSYSIHWVRQAPGKGLEWVASISSSSGYTYYADSVKGRFTISADTSKNTAYLQMNSLRAEDTAVYYCARYSWWGWHMEGWWGYMNAFDYWGQGTLVTV
VL: DIQMTQSPSSLSASVGDRVTITCRASQSVSSAVAWYQQKPGKAPKLLIYSASSLYSGVPSRFSGSRSGTDFTLTISSLQPEDFATYYCQQAHPKPITFGQGTKVEIKR
